B1: SEQ ID No20 (protein, listed as Bungarus fasclatus)
chain: RICLNQQQSTPEDQPTNGQCYIKTDCQNKTWNTHRGSRTDRGCGCPKVKPGINLRCCKTDKCNE
B2: SEQ ID No9 (protein)
chain: TKCYKTGDRIISEACPPGQDLCYMKTWCDVFCGTRGRVIELGCTATCPTVKPHEQITCCSTDNCNPHPKMKQ
modifications: Ophiophagus hannah
B3: SEQ ID No1 (protein, listed as Naja atra)
chain: LECHNQQSSQTPTTTGCSGGETNCYKKRWRDHRGYRTERGCGCPSVKNGIEINCCTTDRCNN

Tested on: tumor necrosis factor alpha (TNF-alpha)
Assay: Carrageenan pleural inflammation rat model, serum TNF-alpha by ELISA
Format: in vivo, Wistar rats
Settings: 200 μg/kg oral (intragastric) 1 hour before carrageenan; rat tail vein blood 6 hours after carrageenan; n = 10; inflammation group 61.30 ± 7.86, saline control 42.70 ± 5.93
Protocol: (§1) 140 Wistar rats (200-240 g) are randomly divided into 14 groups, and each group is 10. The preparation method comprises the following steps: (group 1) only receiving sterile normal saline ([…]) (control group); (group 2) carrageenan inflammation modeling+oral normal saline 10 ml/kg (inflammation group); (Group 3) Carrageenan Inflammation modeling+oral Naja atra postsynaptic neurotoxin (SEQ ID NO 1) 200 μg/kg prepared into a liquid state and continuous intragastric administration performed; (Group 4) Carrageenan Inflammation modeling+oral Naja atra postsynaptic neurotoxin (SEQ ID NO 1) 800 μg/kg prepared into a liquid state and continuous intragastric administration performed. (Group 5-14) The postsynaptic neurotoxin of Bungarus multicinctus, Ophiophagus Hannah, Naja kaouthia, Dendroaspis polylepis, Bungarus fasclatus, through the same administration model, that means carrageenan inflammation modeling+oral administration of 200 μg/kg and 800 μg/kg two doses respectively and continuously intragastric administration, so that the rat is divided into 14 groups.
(§2) Except for the […], 0.1 ml of sterile normal saline+carrageenan (CG, 1%) is injected into the rest 13 groups through pleural cavities for inflammation modeling. The preparation method comprises the following steps: 1 hour before molding, orally administration of normal saline or different types of postsynaptic neurotoxin with different doses respectively in each group, 6 hours after the carrageenan injection, collecting rat tail vein blood to detect the concentration of IL-1 beta and TNF-alpha.
(§3) The serum of the collected rat tail vein blood is separated and collected by using a commercial ELISA assay kit, and biochemical evaluation is carried out on the concentration of the tumor necrosis factor alpha (TN F-alpha) and interleukin 1 beta (IL-1 beta) according to the instructions of experimental step of the kit's manufacturer.

Q: How did the “TNF-a blood average concentration (x ± s)” value turn out when B1 was run?
A: 52.82 ± 6.55 ng/L

Q: With B2 as the molecule, how does the “TNF-a blood average concentration (x ± s)” value read?
A: 54.80 ± 5.01 ng/L

Q: B3 was tested. Which “TNF-a blood average concentration (x ± s)” value did it give?
A: 53.70 ± 6.32 ng/L

Same assay, conditions: 800 μg/kg oral (intragastric) 1 hour before carrageenan; rat tail vein blood 6 hours after carrageenan; n = 10; inflammation group 61.30 ± 7.86, saline control 42.70 ± 5.93

Q: Which “TNF-a blood average concentration (x ± s)” value does the source give for B1 here?
A: 47.81 ± 5.72 ng/L

Q: With B2 as the molecule, how does the “TNF-a blood average concentration (x ± s)” value read?
A: 51.20 ± 5.76 ng/L

Q: How did the “TNF-a blood average concentration (x ± s)” value turn out when B3 was run?
A: 50.60 ± 5.89 ng/L

Tested on: interleukin 1 beta (IL-1 beta)
Assay: Carrageenan pleural inflammation rat model, serum IL-1 beta by ELISA
Format: in vivo, Wistar rats
Settings: 200 μg/kg oral (intragastric) 1 hour before carrageenan; rat tail vein blood 6 hours after carrageenan; n = 10; inflammation group 52.40 ± 6.74, saline control 35.20 ± 4.78
Protocol: as §1, §2, §3

Q: How did the “IL-1β blood average concentration (x ± s)” value turn out when B1 was run?
A: 44.10 ± 4.32 *^ ng/L

Q: With B2 as the molecule, how does the “IL-1β blood average concentration (x ± s)” value read?
A: 44.50 ± 4.97 ng/L

Q: For B3, which “IL-1β blood average concentration (x ± s)” value is on record?
A: 45.40 ± 4.95 ng/L

Same assay, conditions: 800 μg/kg oral (intragastric) 1 hour before carrageenan; rat tail vein blood 6 hours after carrageenan; n = 10; inflammation group 52.40 ± 6.74, saline control 35.20 ± 4.78

Q: B1 was tested. Which “IL-1β blood average concentration (x ± s)” value did it give?
A: 40.80 ± 3.78 ng/L

Q: How did the “IL-1β blood average concentration (x ± s)” value turn out when B2 was run?
A: 41.70 ± 4.23 ng/L

Q: B3 was tested. Which “IL-1β blood average concentration (x ± s)” value did it give?
A: 41.30 ± 4.31 ng/L

Reference: patent publication US20240041988A1, “Use of elapidae postsynaptic neurotoxin in the treatment of over expression of inflammatory cytokines related diseases” (priority 2020, published 2024)
